# Experimental data published in patent US20100143245A1.
# Biological target: 4Ig-B7H3, the 4Ig domain isoform of the human B7-homolog 3 (human) (UniProt Q5ZPR3)
# Assay: Immunoaffinity capture from LAN-1 lysate or membrane fraction on 8H9-protein G Sepharose, followed by Western blot
# Sequence of UniProt Q5ZPR3 (Q5ZPR3 29-534 limits assumed, form in doubt): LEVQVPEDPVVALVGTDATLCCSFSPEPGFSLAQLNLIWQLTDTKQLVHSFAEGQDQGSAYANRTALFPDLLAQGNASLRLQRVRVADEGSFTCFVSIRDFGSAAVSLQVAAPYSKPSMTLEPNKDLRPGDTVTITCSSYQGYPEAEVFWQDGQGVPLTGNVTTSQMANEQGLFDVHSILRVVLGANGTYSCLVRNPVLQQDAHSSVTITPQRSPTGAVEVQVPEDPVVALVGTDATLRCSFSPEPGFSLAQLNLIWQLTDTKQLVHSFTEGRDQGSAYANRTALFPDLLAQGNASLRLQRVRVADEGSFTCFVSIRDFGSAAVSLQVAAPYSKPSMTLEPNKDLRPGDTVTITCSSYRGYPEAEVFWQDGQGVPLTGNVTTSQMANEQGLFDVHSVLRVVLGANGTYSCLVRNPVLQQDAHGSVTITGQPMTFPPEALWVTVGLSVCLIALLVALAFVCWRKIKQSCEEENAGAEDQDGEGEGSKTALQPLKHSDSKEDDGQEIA
substance,measurement,value
monoclonal antibody 8H9,portion of 8H9 antigen bound to the Sepharose,> 50%
